Non-standard residues stand in square brackets, D forms with d. *: point of attachment. Biotin = O=C1N[C@H]2[C@H](CS[C@H]2CCCCC(=O)*)N1; Ahx = NCCCCCC(=O)O; βAla = NCCC(=O)O
B1: H1H3s (peptide)
chain: Ac-GYRFSNFVIHWG[βAla]G[Ahx]GK(Biotin)G[Ahx]SVGPYSWDDSPQDNYMDS-NH2
modifications: not fully specified; printed as Ac‐GYRFSNFVIHW‐GBGXG‐K*‐GX‐SVGPYSWDDSPQDNYMDS‐NH_2_
B2: H1H3s‐allD (peptide)
chain: Ac-G[dY][dR][dF][dS][dN][dF][dV][dI][dH][dW]G[βAla]G[Ahx]G[dK](Biotin)G[Ahx][dS][dV]G[dP][dY][dS][dW][dD][dD][dS][dP][dQ][dD][dN][dY][dM][dD][dS]-NH2
SMILES: CC[C@@H](C)[C@@H](NC(=O)[C@H](NC(=O)[C@@H](Cc1ccccc1)NC(=O)[C@@H](CC(N)=O)NC(=O)[C@@H](CO)NC(=O)[C@@H](Cc1ccccc1)NC(=O)[C@@H](CCCNC(=N)N)NC(=O)[C@@H](Cc1ccc(O)cc1)NC(=O)CNC(C)=O)C(C)C)C(=O)N[C@H](Cc1c[nH]cn1)C(=O)N[C@H](Cc1c[nH]c2ccccc12)C(=O)NCC(=O)NCCC(=O)NCC(=O)NCCCCCC(=O)NCC(=O)N[C@H](CCCCNC(=O)CCCC[C@@H]1SC[C@@H]2NC(=O)N[C@@H]21)C(=O)NCC(=O)NCCCCCC(=O)N[C@H](CO)C(=O)N[C@@H](C(=O)NCC(=O)N1CCC[C@@H]1C(=O)N[C@H](Cc1ccc(O)cc1)C(=O)N[C@H](CO)C(=O)N[C@H](Cc1c[nH]c2ccccc12)C(=O)N[C@H](CC(=O)O)C(=O)N[C@H](CC(=O)O)C(=O)N[C@H](CO)C(=O)N1CCC[C@@H]1C(=O)N[C@H](CCC(N)=O)C(=O)N[C@H](CC(=O)O)C(=O)N[C@H](CC(N)=O)C(=O)N[C@H](Cc1ccc(O)cc1)C(=O)N[C@H](CCSC)C(=O)N[C@H](CC(=O)O)C(=O)N[C@H](CO)C(N)=O)C(C)C
B3: H1H3s‐R28K (peptide)
chain: Ac-GYKFSNFVIHWG[βAla]G[Ahx]GK(Biotin)G[Ahx]SVGPYSWDDSPQDNYMDS-NH2
modifications: not fully specified; printed as Ac‐GYKFSNFVIHW‐GBGXG‐K*‐GX‐SVGPYSWDDSPQDNYMDS‐NH_2_

Experiments:
[1] = biological target: T1, HIV‐1 envelope glycoprotein gp120, strain HxBc2 (HIV-1 strain HxBc2, UniProt P04578 33-511); experiment: ELISA; gp120 HxBc2 coated (1.4 μg/mL, 0.1 M phosphate buffer pH 7.4, overnight 4°C), blocked with Ficoll 400; biotinylated peptide in serial threefold dilutions from 400 nM, overnight 4°C; detected with anti-biotin peroxidase; details: both partners purified
[2] = biological target: T1, HIV‐1 envelope glycoprotein gp120, …; experiment: cell-based or functional assay

Binder	EC50 [1] [nM]	neutralisation of HIV-1 NL4-3 infection, SEAP reporter CEMx174 cells, IC50 [2] [nM]
B1	6.46 ± 1.5	6300
B2	–	1900
B3	7.86 ± 1.35	–
